Reference: patent publication US20210283054A1

Legend:
[1] = molecular target: Fluorogenic Homopolymer (DP=20) of NorGly-E(EDANS)…(dabcyl)GSGSG-NH2; assay: cell-based or functional assay
[2] = molecular target: NorGly-E(EDANS)…(dabcyl)GSGSG-NH2; assay: cell-based or functional assay
[3] = system: T1, thrombin substrate monomer (norbornene-GALVPRGSGERDG-NH2)
T1 sequence: GALVPRGSGERDG

[4] = system: T2, Thrombin Homopolymer (10 mer)
T2 sequence: GALVPRGSGERDG

[5] = system: T3, Thrombin Homopolymer (30 mer)
T3 sequence: GALVPRGSGERDG

[6] = system: T4, Thrombin Homopolymer (20 mer)
T4 sequence: GALVPRGSGERDG

| Substance | Homopolymer V0 (initial velocity of proteolysis) [1] [µM/min] | Monomer V0 (initial velocity of proteolysis) [2] [µM/min] | fold faster initial rate (V0) of the monomer than of the homopolymer [2] [fold] | proteolytic cleavage by RP-HPLC [3] | proteolytic cleavage by RP-HPLC [4] | proteolytic cleavage by RP-HPLC [5] | proteolytic cleavage by RP-HPLC [6] |
| --- | --- | --- | --- | --- | --- | --- | --- |
| Pronase (Roche, cat. #10165921001) | 0.0021 | 0.2 | 17 to 95 | – | – | – | – |
| thrombin (Sigma, cat. #T6884-100UN) | – | – | – | the monomeric peptide was readily degraded by thrombin | homopolymers at several degrees of polymerization were resistant to cleavage relative to the monomer, albeit not completely shut off from proteolysis | homopolymers at several degrees of polymerization were resistant to cleavage relative to the monomer, albeit not completely shut off from proteolysis | homopolymers at several degrees of polymerization were resistant to cleavage relative to the monomer, albeit not completely shut off from proteolysis |
